# Earlier results as cited in article PMC8444577.
# Target: IL-18 (Homo sapiens) (UniProt Q14116)
# Sequence (Q14116 37-193): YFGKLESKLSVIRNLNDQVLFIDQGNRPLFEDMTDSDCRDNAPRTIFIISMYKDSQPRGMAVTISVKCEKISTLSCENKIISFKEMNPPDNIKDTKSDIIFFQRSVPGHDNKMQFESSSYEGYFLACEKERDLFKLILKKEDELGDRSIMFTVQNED
# IL-18BP, sequence (O95998 31-194): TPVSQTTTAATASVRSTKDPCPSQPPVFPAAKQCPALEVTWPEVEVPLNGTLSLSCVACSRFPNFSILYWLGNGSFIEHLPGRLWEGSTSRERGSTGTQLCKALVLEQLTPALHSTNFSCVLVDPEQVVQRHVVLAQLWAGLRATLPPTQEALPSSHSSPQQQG
substance,measurement,value
IL-18BP (from UniProt O95998),Kd,0.4 nM
